We go through two proteins from PMC12599251, “Nitration-driven structural changes in Hsp90 linked to gain of pathological functions” (Biochemical Journal, 2025).

The series concerns the molecule itself. Briefly: AUC; sedimentation velocity, 42,000 rpm, 20°C, 11-15 uM protein, absorbance at 280 nm, continuous c(S) distribution (SEDFIT); peroxynitrite-treated samples dialyzed beforehand.

B1: Human Hsp90β with Y33 and Y56 replaced by phenylalanine (natural protein)
chain: not shown
notes: Human Hsp90β, UniProtKB P08238, gene HSP90AB1; Y33 and Y56 replaced by nitration-resistant phenylalanine; also called Hsp90^F33-56; Hsp90^F33-F56; source: E. coli BL21-AI, purified (Ni-NTA, Sephacryl-300 SEC)
What is called stoichiometry N is a count of units in the complex or per binding partner. B1: the “stoichiometry N” value was 2.

B2: Human Hsp90β with Y33 and Y56 replaced by phenylalanine, treated with 0.5 mM peroxynitrite (natural protein)
chain: not shown
modifications: oxidised with 0.5 mM peroxynitrite; Y276, Y484 and Y596 are named as also prone to nitration
notes: Human Hsp90β, UniProtKB P08238, gene HSP90AB1; Y33 and Y56 replaced by phenylalanine, oxidised in vitro with peroxynitrite; Peroxynitrite gives a mixed product; also called Hsp90^F33-56 + ONOO^-; Hsp90^F33-F56 + ONOO^-; source: E. coli BL21-AI, purified (Ni-NTA, Sephacryl-300 SEC), then treated with 0.5 mM peroxynitrite
Regarding B2, the “stoichiometry N” value is 2.
